The record followed here is patent US20260265340A1 (CUROGEN TECHNOLOGY, published 2026).

This assay has as its target T1, human TNFα (human, UniProt P01375 77-233).
T1 construct: also called hTNFα
In words: ELISA, cytokine coated on the plate; the text value differs from the table cell 43.8.

T1 sequence (P01375 77-233 limits assumed): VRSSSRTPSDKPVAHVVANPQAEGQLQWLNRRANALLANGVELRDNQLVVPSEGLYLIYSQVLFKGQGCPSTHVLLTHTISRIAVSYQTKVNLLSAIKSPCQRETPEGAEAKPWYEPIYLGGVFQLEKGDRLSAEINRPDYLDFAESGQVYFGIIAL
Description: The wells were then blocked with ELISA TBS buffer containing 5% BSA at 100 μl/well and incubated at room temperature for 1 hour, followed by three washes with ELISA TBS buffer (200 μl/well). […] After three washes with ELISA TBS buffer (200 μl/well), HRP-conjugated secondary antibody (Abcam, Cat. Ab98624) was applied and incubated at room temperature for 1 hour.

B1: IL-17RA/RC-Fc-TNFR2 fusion protein T1-T4-14 (Fc fusion)
chain: LRLLDHRAPVCSQPGLNCTVKNSDCLDDSWIHPRNLTPSSPKDLQIQLHFAHTQQGDLVPVAHIEWTLQTDASILYLEGAELSVLQLDTNERLCVRFEFLSKLRHHHRRWRFTFSHFVVDPGQEYEVTVHHLPKPIPDGDPNHQSKNFLVPDCEHPRMKVTTPCMSSALPWLNVSADGDNVHLVLNVSEEQHFGLSLYWNQVQGPPKPRWHKNLTGPQIITLNHTDLVPCLCIQVWPLEPDSVRTNICPFREDPRAHQNLWQAARLRLLTLQSWLLDAPCSLPAEAALCWRAPGGDPCQPLVPPLSWENVTVDKVLEFPLLKGHPNLCVQVNSSEKLQLQECLWADSLGPLKDDVLLLETRGPQDNRSLCALEPSGCTSLPSKASTRAARLGEYLLQDLQSGQCLQLWDDDLGALWACPMDKYIHKTGIEGRMDRNTGRGGEEKKKEKEKEEQEERETKTPECPSHTQPLGVFLFPPKPKDTLMISRTPEVTCVVVDVSQEDPEVQFNWYVDGVEVHNAKTKPREEQFNSTYRVVSVLTVLHQDWLNGKEYKCKVSNKGLPSSIEKTISKAKGQPREPQVYTLPPSQEEMTKNQVSLTCLVKGFYPSDIAVEWESNGQPENNYKTTPPVLDSDGSFFLYSRLTVDKSRWQEGNVFSCSVMHEALHNHYTQKSLSLSLGKGGGGSGGGGSGGGGSLELPAQVAFTPYAPEPGSTCRLREYYDQTAQMCCAKCPPGQHAKVFCTKTSDTVCDSCEDSTYTQLWNWVPECLSCSSRCSSDQVETQACTREQNRICTCRPGWYCALSKQEGCRLCAPLSKCRPGFGVARPGTETSDVVCKPCAPGTFSNTTSSTDICRPHQICSVVAIPGNASMDAVCTSTSPTRSMAPGAVHLPQPVSTRSQHTQPTPGPSTAPSTSILLPMGPSPPAEGSTGD
notes: Structure T1c-Fc-T4g; also called T1c-Fc-T4g; IL-17RA/RC-Fc-TNFR2 (T1-T4-14)
B1 registered an EC50 of 0.0431 µg/mL.
